Source: JPH07265077A (dated 1995)

Molecular target: T1, Hemagglutinin (HA) of human influenza A virus A2/Aichi/2/68 (H3N2サブタイプ) (human influenza A virus A2/Aichi/2/68 …, UniProt P03437 17-566)
T1 construct: whole, on cells; also called A/Aichi/2/68; A2/Aichi/2/68

B1: モノクローナル抗体C179 (monoclonal antibody C179) (antibody, V domains shown)
VH: EVKLVESGGGLVQPGGSLRLSCGTSGFTLTDDYMTWVRQPPGKALEWLGFIRDRANGYTTEYSASVKGRFTISRDNSQSIVYLQMNTLRVEDSATYYCARPKGYFPYAMDYWGQGT
VL: DIQMTQSPASQSASLGESVTITCLASQTIGTWLAWYQQKPGKSPQLLIYAATSLADGVPSRFSGSGSGTKFSFKISSLQAEDFVSYYCQQLYSTPWTF
notes: also called antibody of Hybridoma C179 (FERM BP-4517)
B1: no binding.
